What is called Kd is the constant that tells how readily two partners part at equilibrium. A low value points to tighter binding.

The star is where a group is joined. FITC = O=C1OC2(c3ccc(O)cc3Oc3cc(O)ccc32)c2ccc(NC(=S)*)cc21

The first test deals with substrate-trapping ClpB variant (E279Q/E678Q) (Escherichia coli, UniProt P63284, E279Q/E678Q).
Experiment: not given
The class given is binding. Conditions: ClpB with ATP, buffer A, room temperature.
Regarding `O=C1OC2(c3ccc(O)cc3Oc3cc(O)ccc32)c2ccccc21` [fluorescein], the “anisotropy change of free label with ClpB” value was “did not affect the anisotropy”.

A further test addresses ATP-hydrolysis deficient substrate-trapping ClpB variant (E279Q/E678Q) (Escherichia coli, UniProt P63284 1-857, E279Q | E678Q). Description: fluorescence polarisation.
Details: not given
In general terms: Polarisation of emitted light reports the rotation of a fluorescent probe.
In turn, FHAWQHQGKTLAISRKTYRI (FITC on the N-terminus; C-terminal amide) [peptide B1N] had a dissociation constant (Kd) of 7.26 ± 0.32 nM.
{FITC}-QLWQGQFRNLRRKTFFKKLN-NH2 [peptide B2N] registered a Kd of 17.5 ± 0.92 nM.
Still for that read-out and setting: as for {FITC}-KTLFISR-NH2 [peptide B1T], the figure is 329 ± 39 nM; as for {FITC}-RLGWFNQ-NH2 [peptide B2T2], above 1000 nM.
Still for that read-out and setting: as for {FITC}-QGQFRNLRRKQLWTFFLNKK-NH2 [peptide B2A], the figure is 10.2 ± 0.8 nM; as for {FITC}-KLFFNLR-NH2 [peptide B2T1], 912 ± 231 nM; as for {FITC}-AHAWQHQGKTLFISRKTYRI-NH2 [peptide B1], 46.8 ± 1.5 nM.
Still for that read-out and setting: for {FITC}-QQFRNRRKLTFLKKLGWFNQ-NH2 [peptide B2B] the value was 11.5 ± 0.52 nM.

The values above are taken from article PMC6139261 (Archives of biochemistry and biophysics, 2018).
